From paper PMC7957537 (2021) come the findings set out here.

Assay [1] deals with T1, recombinant human VEGFR2 (human, UniProt P35968 20-764).
T1 chain: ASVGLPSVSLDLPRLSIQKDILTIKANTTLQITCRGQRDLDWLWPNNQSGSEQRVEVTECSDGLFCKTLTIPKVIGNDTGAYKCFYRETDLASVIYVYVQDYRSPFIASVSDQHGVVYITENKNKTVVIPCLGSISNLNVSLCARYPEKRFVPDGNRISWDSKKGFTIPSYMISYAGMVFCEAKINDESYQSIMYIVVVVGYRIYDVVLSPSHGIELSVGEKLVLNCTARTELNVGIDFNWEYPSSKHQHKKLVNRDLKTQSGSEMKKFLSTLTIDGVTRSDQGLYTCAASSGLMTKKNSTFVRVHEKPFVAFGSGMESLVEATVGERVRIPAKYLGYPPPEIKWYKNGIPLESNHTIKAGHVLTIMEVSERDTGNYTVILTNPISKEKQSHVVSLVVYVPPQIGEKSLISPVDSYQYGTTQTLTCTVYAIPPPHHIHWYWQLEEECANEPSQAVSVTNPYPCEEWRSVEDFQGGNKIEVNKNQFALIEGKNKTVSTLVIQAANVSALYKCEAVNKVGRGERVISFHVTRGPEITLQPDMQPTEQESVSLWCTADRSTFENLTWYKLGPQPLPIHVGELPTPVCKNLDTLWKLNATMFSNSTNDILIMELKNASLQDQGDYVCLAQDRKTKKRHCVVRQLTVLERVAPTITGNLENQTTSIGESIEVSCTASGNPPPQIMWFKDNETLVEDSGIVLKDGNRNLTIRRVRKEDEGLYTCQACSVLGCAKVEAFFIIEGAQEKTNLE
In words: SPR. For orientation: Surface plasmon resonance follows binding to a sensor surface in real time, without labels.

The target of assay [2] is T1, recombinant human VEGFR2. Description: SPR.

B1: ramucirumab (Cyramza) (antibody, V domains shown)
VH: EVQLVQSGGGLVKPGGSLRLSCAASGFTFSSYSMNWVRQAPGKGLEWVSSISSSSSYIYYADSVKGRFTISRDNAKNSLYLQMNSLRAEDTAVYYCARVTDAFDIWGQGTMVTVSS
VL: DIQMTQSPSSVSASIGDRVTITCRASQGIDNWLGWYQQKPGKAPKLLIYDASNLDTGVPSRFSGSGSGTYFTLTISSLQAEDFAVYFCQQAKAFPPTFGGGTKVDIK
With B1, the Kd with recombinant human VEGFR2 [1] turned out to be 0.949 nM. Moreover, the koff with recombinant human VEGFR2 [2] was found to be 0.000102 s⁻¹.

As a reminder, the Kd is a measure of binding affinity in units of concentration. The koff is the rate constant with which the complex falls apart.
